Results from patent publication US20170015742A1 (published 2017).

How the values were obtained:
PDGF-BB = target: T1, PDGF-BB (human, UniProt P01127 82-190, limits assumed); assay: Biacore SPR; DVD-Ig captured on anti-human Fc, antigen injected
T1 construct: also called human PDGF-BB; hPDGF-BB
Protocol: (§1) For example, approximately 9000 RU of goat anti-human Fc specific polyclonal antibody (Thermo Fisher Scientific Inc., Rockford, Ill.) diluted in 10 mM sodium acetate (pH 4.5) is directly immobilized across a CM5 research grade biosensor chip using a standard amine coupling kit according to manufacturer's instructions and procedures at 25 μg/ml. Unreacted moieties on the biosensor surface were blocked with ethanolamine. For kinetic analysis, rate equations derived from the 1:1 Langmuir binding model were fitted simultaneously to multiple antigen injections (using global fit analysis) with the use of Scrubber 2 (BioLogic Software), Biacore Biaevaluation 4.0.1 software or Biacore T100 Evaluation software. Purified antibodies or DVD-Ig molecules were diluted in running buffer for capture across goat anti-human Fc reaction surfaces. Antibodies or DVD-Ig molecules to be captured as a ligand (1 μg/ml) were injected over reaction matrices at a flow rate of 10 μl/minute. During the assay, all measurements were referenced against the capture surface alone (i.e., with no captured antibody or DVD-Ig molecule). […] The equilibrium dissociation constant KD (M) of the reaction between antibodies and the target antigen was then calculated from the kinetic rate constants by the following formula: KD=Koff/Kₒₙ. Binding was recorded as a function of time and kinetic rate constants were calculated.

VEGF-A = target: T2, VEGF-A (human, UniProt P15692 207-395); assay: as above
T2 construct: also called hVEGF165
T2 sequence (P15692 other isoform, or with tags, fused parts or gaps limits assumed): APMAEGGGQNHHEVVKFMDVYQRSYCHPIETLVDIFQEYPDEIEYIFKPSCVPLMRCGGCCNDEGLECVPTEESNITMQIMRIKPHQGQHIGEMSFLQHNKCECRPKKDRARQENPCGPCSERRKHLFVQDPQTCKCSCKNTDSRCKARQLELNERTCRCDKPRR
Protocol: as §1

T1 sequence (P01127 82-190 limits assumed): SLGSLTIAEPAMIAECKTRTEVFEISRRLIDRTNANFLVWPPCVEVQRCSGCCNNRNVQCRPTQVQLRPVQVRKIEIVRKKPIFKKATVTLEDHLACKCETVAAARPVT

| Binder | Kd (PDGF-BB) [nM] | kon (PDGF-BB) [M⁻¹ s⁻¹] | Kd (VEGF-A) [nM] | kon (VEGF-A) [M⁻¹ s⁻¹] |
| --- | --- | --- | --- | --- |
| 4G8.3-GS-9E8.4E (PR-1575832) (bispecific antibody, human IgG1, kappa, L234A L235A, DVD-Ig: outer hBDB-4G8.3 (VEGF), inner hBDI-9E8.4E (PDGF), linkers GS-H10/GS-L10; Human IgG1 L234A, L235A, H435A with kappa) heavy: EVQLVQSGSELKKPGASVKVSCKASGYTFTNYGMYWVRQAPGQGLEWMGWINTETGKPTYADDFKGRFVFSLDTSVSTAYLQISSLKAEDTAVYYCARTNYYYRSYIFYFDYWGQGTMVTVSSGGGGSGGGGSEVTLRESGPALVKPTQTLTLTCTFSGFSLSTYGMGVGWIRQPPGKALEWLANIWWDDDKYYNPSLKNRLTISKDTSKNQVVLTMTNMDPVDTATYYCARIESIGTTYSFDYWGQGTMVTVSSASTKGPSVFPLAPSSKSTSGGTAALGCLVKDYFPEPVTVSWNSGALTSGVHTFPAVLQSSGLYSLSSVVTVPSSSLGTQTYICNVNHKPSNTKVDKKVEPKSCDKTHTCPPCPAPEAAGGPSVFLFPPKPKDTLMISRTPEVTCVVVDVSHEDPEVKFNWYVDGVEVHNAKTKPREEQYNSTYRVVSVLTVLHQDWLNGKEYKCKVSNKALPAPIEKTISKAKGQPREPQVYTLPPSREEMTKNQVSLTCLVKGFYPSDIAVEWESNGQPENNYKTTPPVLDSDGSFFLYSKLTVDKSRWQQGNVFSCSVMHEALHNAYTQKSLSLSPGK light: DTVLTQSPATLSLSPGERATLSCRASESVSTHMHWYQQKPGQAPRLLIYGASNLESGVPARFSGSGSGTDFTLTISSLEPEDFAVYFCQQSWNDPFTFGQGTKLEIKRGGSGGGGSGEFVLTQSPGTLSLSPGERATLSCERSSGDIGESYVSWYQQKPGQAPRLVIYADDQRPSGIPDRFSGSGSGTDFTLTISRLEPEDFAVYYCQSYDINIDIVFGGGTKVEIKRTVAAPSVFIFPPSDEQLKSGTASVVCLLNNFYPREAKVQWKVDNALQSGNSQESVTEQDSKDSTYSLSSTLTLSKADYEKHKVYACEVTHQGLSSPVTKSFNRGEC | 0.02 | 1.3e+07 | 0.013 | 6.1e+06 |
| 9A8.12-GS-9E8.4E (PR-1577165) (bispecific antibody, human IgG1, kappa, L234A L235A, DVD-Ig: outer hBEW-9A8.12 (VEGF), inner hBDI-9E8.4E (PDGF), linkers GS-H10/GS-L10; Human IgG1 L234A, L235A, H435A with kappa) heavy: EVQLVQSGAEVKKPGASVKVSCKASGYTFTNYGMYWVRQAPGQGLEWMGWINTETGKPIYADDFKGRVTMTTDTSTSTAYMELRSLRSDDTAVYYCARVDYDGSFWFAYWGQGTLVTVSSGGGGSGGGGSEVTLRESGPALVKPTQTLTLTCTFSGFSLSTYGMGVGWIRQPPGKALEWLANIWWDDDKYYNPSLKNRLTISKDTSKNQVVLTMTNMDPVDTATYYCARIESIGTTYSFDYWGQGTMVTVSSASTKGPSVFPLAPSSKSTSGGTAALGCLVKDYFPEPVTVSWNSGALTSGVHTFPAVLQSSGLYSLSSVVTVPSSSLGTQTYICNVNHKPSNTKVDKKVEPKSCDKTHTCPPCPAPEAAGGPSVFLFPPKPKDTLMISRTPEVTCVVVDVSHEDPEVKFNWYVDGVEVHNAKTKPREEQYNSTYRVVSVLTVLHQDWLNGKEYKCKVSNKALPAPIEKTISKAKGQPREPQVYTLPPSREEMTKNQVSLTCLVKGFYPSDIAVEWESNGQPENNYKTTPPVLDSDGSFFLYSKLTVDKSRWQQGNVFSCSVMHEALHNAYTQKSLSLSPGK light: DTQLTQSPSSLSASVGDRVTITCRASESVSTVIHWYQQKPGKQPKLLIHGASNLESGVPSRFSGSGSGTDFTLTISSLQPEDFATYFCQQHWNDPPTFGQGTKLEIKRGGSGGGGSGEFVLTQSPGTLSLSPGERATLSCERSSGDIGESYVSWYQQKPGQAPRLVIYADDQRPSGIPDRFSGSGSGTDFTLTISRLEPEDFAVYYCQSYDINIDIVFGGGTKVEIKRTVAAPSVFIFPPSDEQLKSGTASVVCLLNNFYPREAKVQWKVDNALQSGNSQESVTEQDSKDSTYSLSSTLTLSKADYEKHKVYACEVTHQGLSSPVTKSFNRGEC | 0.0081 | 3.3e+07 | 0.18 | 770000 |
| 4G8.3-SL-9E8.4E (PR-1575834) (bispecific antibody, human IgG1, kappa, L234A L235A, DVD-Ig: outer hBDB-4G8.3 (VEGF), inner hBDI-9E8.4E (PDGF), linkers HG-short/LK-long; Human IgG1 L234A, L235A, H435A with kappa) heavy: EVQLVQSGSELKKPGASVKVSCKASGYTFTNYGMYWVRQAPGQGLEWMGWINTETGKPTYADDFKGRFVFSLDTSVSTAYLQISSLKAEDTAVYYCARTNYYYRSYIFYFDYWGQGTMVTVSSASTKGPEVTLRESGPALVKPTQTLTLTCTFSGFSLSTYGMGVGWIRQPPGKALEWLANIWWDDDKYYNPSLKNRLTISKDTSKNQVVLTMTNMDPVDTATYYCARIESIGTTYSFDYWGQGTMVTVSSASTKGPSVFPLAPSSKSTSGGTAALGCLVKDYFPEPVTVSWNSGALTSGVHTFPAVLQSSGLYSLSSVVTVPSSSLGTQTYICNVNHKPSNTKVDKKVEPKSCDKTHTCPPCPAPEAAGGPSVFLFPPKPKDTLMISRTPEVTCVVVDVSHEDPEVKFNWYVDGVEVHNAKTKPREEQYNSTYRVVSVLTVLHQDWLNGKEYKCKVSNKALPAPIEKTISKAKGQPREPQVYTLPPSREEMTKNQVSLTCLVKGFYPSDIAVEWESNGQPENNYKTTPPVLDSDGSFFLYSKLTVDKSRWQQGNVFSCSVMHEALHNAYTQKSLSLSPGK light: DTVLTQSPATLSLSPGERATLSCRASESVSTHMHWYQQKPGQAPRLLIYGASNLESGVPARFSGSGSGTDFTLTISSLEPEDFAVYFCQQSWNDPFTFGQGTKLEIKRTVAAPSVFIFPPEFVLTQSPGTLSLSPGERATLSCERSSGDIGESYVSWYQQKPGQAPRLVIYADDQRPSGIPDRFSGSGSGTDFTLTISRLEPEDFAVYYCQSYDINIDIVFGGGTKVEIKRTVAAPSVFIFPPSDEQLKSGTASVVCLLNNFYPREAKVQWKVDNALQSGNSQESVTEQDSKDSTYSLSSTLTLSKADYEKHKVYACEVTHQGLSSPVTKSFNRGEC | 0.015 | 1.7e+07 | 0.01 | 6.2e+06 |

Now from value to binder:

| Kd (PDGF-BB) [nM] | kon (PDGF-BB) [M⁻¹ s⁻¹] | Kd (VEGF-A) [nM] | kon (VEGF-A) [M⁻¹ s⁻¹] | Binder |
| --- | --- | --- | --- | --- |
| 0.0065 | 3.6e+07 | 0.35 | 270000 | 9A8.12-LS-9E8.4E (PR-1577547) (bispecific antibody, human IgG1, kappa, L234A L235A, DVD-Ig: outer hBEW-9A8.12 (VEGF), inner hBDI-9E8.4E (PDGF), linkers HG-long/LK-short; Human IgG1 L234A, L235A, H435A with kappa) heavy: EVQLVQSGAEVKKPGASVKVSCKASGYTFTNYGMYWVRQAPGQGLEWMGWINTETGKPIYADDFKGRVTMTTDTSTSTAYMELRSLRSDDTAVYYCARVDYDGSFWFAYWGQGTLVTVSSASTKGPSVFPLAPEVTLRESGPALVKPTQTLTLTCTFSGFSLSTYGMGVGWIRQPPGKALEWLANIWWDDDKYYNPSLKNRLTISKDTSKNQVVLTMTNMDPVDTATYYCARIESIGTTYSFDYWGQGTMVTVSSASTKGPSVFPLAPSSKSTSGGTAALGCLVKDYFPEPVTVSWNSGALTSGVHTFPAVLQSSGLYSLSSVVTVPSSSLGTQTYICNVNHKPSNTKVDKKVEPKSCDKTHTCPPCPAPEAAGGPSVFLFPPKPKDTLMISRTPEVTCVVVDVSHEDPEVKFNWYVDGVEVHNAKTKPREEQYNSTYRVVSVLTVLHQDWLNGKEYKCKVSNKALPAPIEKTISKAKGQPREPQVYTLPPSREEMTKNQVSLTCLVKGFYPSDIAVEWESNGQPENNYKTTPPVLDSDGSFFLYSKLTVDKSRWQQGNVFSCSVMHEALHNAYTQKSLSLSPGK light: DTQLTQSPSSLSASVGDRVTITCRASESVSTVIHWYQQKPGKQPKLLIHGASNLESGVPSRFSGSGSGTDFTLTISSLQPEDFATYFCQQHWNDPPTFGQGTKLEIKRTVAAPEFVLTQSPGTLSLSPGERATLSCERSSGDIGESYVSWYQQKPGQAPRLVIYADDQRPSGIPDRFSGSGSGTDFTLTISRLEPEDFAVYYCQSYDINIDIVFGGGTKVEIKRTVAAPSVFIFPPSDEQLKSGTASVVCLLNNFYPREAKVQWKVDNALQSGNSQESVTEQDSKDSTYSLSSTLTLSKADYEKHKVYACEVTHQGLSSPVTKSFNRGEC |
| 0.0083 | 2.7e+07 | 0.47 | 250000 | 9A8.12-SL-9E8.4E (PR-1577166) (bispecific antibody, human IgG1, kappa, L234A L235A, DVD-Ig: outer hBEW-9A8.12 (VEGF), inner hBDI-9E8.4E (PDGF), linkers HG-short/LK-long; Human IgG1 L234A, L235A, H435A with kappa) heavy: EVQLVQSGAEVKKPGASVKVSCKASGYTFTNYGMYWVRQAPGQGLEWMGWINTETGKPIYADDFKGRVTMTTDTSTSTAYMELRSLRSDDTAVYYCARVDYDGSFWFAYWGQGTLVTVSSASTKGPEVTLRESGPALVKPTQTLTLTCTFSGFSLSTYGMGVGWIRQPPGKALEWLANIWWDDDKYYNPSLKNRLTISKDTSKNQVVLTMTNMDPVDTATYYCARIESIGTTYSFDYWGQGTMVTVSSASTKGPSVFPLAPSSKSTSGGTAALGCLVKDYFPEPVTVSWNSGALTSGVHTFPAVLQSSGLYSLSSVVTVPSSSLGTQTYICNVNHKPSNTKVDKKVEPKSCDKTHTCPPCPAPEAAGGPSVFLFPPKPKDTLMISRTPEVTCVVVDVSHEDPEVKFNWYVDGVEVHNAKTKPREEQYNSTYRVVSVLTVLHQDWLNGKEYKCKVSNKALPAPIEKTISKAKGQPREPQVYTLPPSREEMTKNQVSLTCLVKGFYPSDIAVEWESNGQPENNYKTTPPVLDSDGSFFLYSKLTVDKSRWQQGNVFSCSVMHEALHNAYTQKSLSLSPGK light: DTQLTQSPSSLSASVGDRVTITCRASESVSTVIHWYQQKPGKQPKLLIHGASNLESGVPSRFSGSGSGTDFTLTISSLQPEDFATYFCQQHWNDPPTFGQGTKLEIKRTVAAPSVFIFPPEFVLTQSPGTLSLSPGERATLSCERSSGDIGESYVSWYQQKPGQAPRLVIYADDQRPSGIPDRFSGSGSGTDFTLTISRLEPEDFAVYYCQSYDINIDIVFGGGTKVEIKRTVAAPSVFIFPPSDEQLKSGTASVVCLLNNFYPREAKVQWKVDNALQSGNSQESVTEQDSKDSTYSLSSTLTLSKADYEKHKVYACEVTHQGLSSPVTKSFNRGEC |
